Reference: patent publication US11098109B2, “Single-chain variable fragment anti-CD133 antibodies and uses thereof” (REGENTS OF THE UNIVERSITY OF MINNESOTA, priority 2010, dated 2021)

T1: CD133 (Homo sapiens, UniProt O43490)
T1 construct: endogenous in cells
T1 sequence (O43490 20-865): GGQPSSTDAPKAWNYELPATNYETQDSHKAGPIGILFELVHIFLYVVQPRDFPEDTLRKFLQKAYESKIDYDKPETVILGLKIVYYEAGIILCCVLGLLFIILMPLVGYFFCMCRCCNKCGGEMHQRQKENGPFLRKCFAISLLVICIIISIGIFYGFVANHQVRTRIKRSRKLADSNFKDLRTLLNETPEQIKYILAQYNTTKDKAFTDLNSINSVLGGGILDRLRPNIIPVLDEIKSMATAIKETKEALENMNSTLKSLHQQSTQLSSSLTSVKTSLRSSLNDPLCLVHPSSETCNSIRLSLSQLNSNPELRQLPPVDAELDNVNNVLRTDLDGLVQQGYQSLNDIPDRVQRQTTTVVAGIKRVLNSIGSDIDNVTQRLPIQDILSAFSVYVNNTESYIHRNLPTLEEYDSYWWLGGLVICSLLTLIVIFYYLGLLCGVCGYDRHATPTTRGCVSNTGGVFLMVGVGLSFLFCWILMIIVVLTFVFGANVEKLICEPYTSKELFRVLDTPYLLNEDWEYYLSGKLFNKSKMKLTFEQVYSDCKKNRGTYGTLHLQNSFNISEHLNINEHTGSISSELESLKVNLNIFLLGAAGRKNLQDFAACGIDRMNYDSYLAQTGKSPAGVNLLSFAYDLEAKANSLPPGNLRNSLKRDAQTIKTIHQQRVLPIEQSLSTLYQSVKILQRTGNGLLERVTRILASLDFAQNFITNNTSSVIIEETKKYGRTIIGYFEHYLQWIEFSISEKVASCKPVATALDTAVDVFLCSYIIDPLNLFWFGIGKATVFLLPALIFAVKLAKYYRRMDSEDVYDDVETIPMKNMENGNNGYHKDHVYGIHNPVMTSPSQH

B1: No. 11 scFv: soluble scFv of the Hybridoma Clone 7 antibody expressed in E. coli Top10F', SEQ ID NO:58; also used FITC-labeled (protein)
scFv: MDIVLSQSPAIMSASPGEKVTISCSASSSVSYMYWYQQKPGSSPKPWIYRTSNLASGVPARFSGSGSGTSYSLTISSMEAEDAATYYCQQYHSYPPTFGAGTKLELKSSGGGGSGGGGGGSSRSSLEVKLVESGPELKKPGETVKISCKASGYTFTDYSMHWVNQAPGKGLKWMGWINTETGEPSYADDFKGRFAFSLETSASTAYLQINNLKNEDTATYFCATDYGDYFDYWGQGTTLTVSS
modifications: optionally FITC-labeled; scFv polypeptide
B2: Hybridoma Clone 7: monoclonal antibody produced by Hybridoma Clone 7 that specifically binds to human CD133 (antibody, V domains shown)
VL: DIVLSQSPAIMSASPGEKVTISCSASSSVSYMYWYQQKPGSSPKPWIYRTSNLASGVPARFSGSGSGTSYSLTISSMEAEDAATYYCQQYHSYPPTFGAGTKLELK
VH: LEVKLVESGPELKKPGETVKISCKASGYTFTDYSMHWVNQAPGKGLKWMGWINTETGEPSYADDFKGRFAFSLETSASTAYLQINNLKNEDTATYFCATDYGDYFDYWGQGTTLTVSS

Legend:
Format in all cases: binding
CD133 [1] = target: T1, CD133; test: Flow cytometry of carcinoma lines with FITC-labeled anti-CD133 scFv
Method: We detected about 5% CD133 cells/95% CD133-cells in the various carcinomas that we examined. […] The anti-CD133 scFV was labeled with FITC and then standard flow cytometry was performed. The levels of CD133 expression (4-7.1%) are in agreement with values reported values. CaCo-2 colorectal carcinoma is a cell line known to express high levels of CD133+ cells so we included it as a positive control. Anti-CD45-FITC and anti-CD19 FITC are negative controls that preferentially recognize hematopoietic cells.
CD133 expression on UMSCC-11B cells on head and neck cancer cells. CD133 expression was measured on the UMSCC-11B cell line using flow cytometery. Cells were reacted with anti-CD133scFV-FITC for 30 minutes in the dark on ice. Cells were then washed 3× using saline and studied using a flow cytometer (FACScanto™ II, BD Biosciences, Franklin Lakes, N.J.). The blank (untreated cells) was used to establish the gate of non-positive cell activity. CD133 was expressed on both head and neck cancer cell lines, NA and UMSC-11B, at 5.9% and 6% respectively (Table 13). The Caco-2 colorectal carcinoma was included as a positive control cell line since it known to overexpress CD133. Controls included cells reacted with anti-EpCam-FITC, anti-CD45-FITC, and anti-CD19-FITC. Expression of CD45 and CD19 is mostly restricted to normal malignant hematopoietic cells.

CD133 [2] = target: T1, CD133; test: Immunohistochemistry of human glioma and kidney tissue sections
Method: 5 μm paraffin sections of human kidney or glioblastoma tissue were mounted onto charged slides. The sections were deparaffinized and rehydrated using standard methods, rinsed in running tap-water and placed in a PBS bath for five minutes. The slides were then incubated in a pre-heated steamer bath with staining dish containing EDTA buffer (pH 8.0) for 30 minutes and then cooled for 20 minutes. The slides were washed with PBS (pH 7.4) for minimum of five minutes and then subjected to following incubation steps: blocking with serum-free background Sniper (Biocare Medical. Concord, Calif.), primary antibody at a 1:200 dilution of hybridoma supernatant at 4° C. overnight, Leica Bond post primary. Leica Bond polymer, and DAB chromagen developer. The sections were rinsed well, counterstained with hematoxylin, dehydrated, sealed with a cover slip and imaged.

CD133 [3] = target: T1, CD133; test: Flow cytometry specificity test on U87, CD133-transfected U87, Caco-2 and GBM6 cells
Method: FIG. 3: Specificity of antibody produced by Hybridoma Clone 7. (A) Flow cytometry. Cells were incubated with primary antibody from either Hybridoma Clone 7 or 293C3 (Militenyi), followed by incubation with a labeled secondary antibody, and then analyzed by flow cytometry. Antibody from the newly developed anti-CD133 Hybridoma Clone 7 (open black histogram) stains very specifically the CD133-overexpressing cells, Caco-2 (iii), GBM6 (iv) and U87 cells transfected with CD133 (ii) but not CD133 negative U87 cells (i). Immunostaining using the monoclonal antibody produced by Hybridoma Clone 7 is compared to clone 293C3 (open grey histogram). Isotype control is represented by solid grey histogram. (B) Tunicamycin mediated glycosylation inhibition. Caco-2 cells were treated with increasing doses of tunicamycin (2.5, 5, 10, 20 μg/ml) for 3 days. DMSO treated cells or untreated cells served as controls. Cells were lysed and then analyzed by Western blotting using the monoclonal antibody produced by Hybridoma Clone 7 or GAPDH antibodies.
CD133-IRES GFP or CMV GFP constructs were transfected into U87 cells using FuGENE HD transfection reagent according to the manufacturer's instructions. Briefly, cells were plated in a 10 cm dish. Twelve hours later, 10 μg of the pDNA was diluted in serum-free growth DMEM and mixed with 40 μl of the transfection reagent. Following incubation for 15 minutes, the transfection mix was added to the cells. Forty-eight hours later, cells were harvested using non-enzymatic cell dissociation buffer (Sigma-Aldrich Corp., St. Louis, Mo.) for flow cytometry.
Primary human glioblastoma GBM6 cells, U87, or Caco-2 cells were washed three times and suspended in 100 μl of PBS. […] Cells were further incubated with 10 μl of anti-mouse hylite 647 (1:40 dilution; American Qualex, San Clemente, Calif.) for 30 minutes at 4° C., washed three times, and analyzed by flow cytometry.

| Molecule | % Positive Cells, CD133+ (CD133 [1]; BT474, breast) [%] | % Positive Cells, CD133+ (CD133 [1]; Caco-2, colon, positive control line, listed as anti-CD133 scFV) [%] | % Positive Cells, CD133+ (CD133 [1]; Caco-2, colon, positive control line, listed as anti-CD133scFV-FITC) [%] | % Positive Cells, CD133+ (CD133 [1]; MDA-MB231, breast) [%] | % Positive Cells, CD133+ (CD133 [1]; MDA-MD468, breast) [%] | % Positive Cells, CD133+ (CD133 [1]; MiaPaCa-2, pancreas) [%] | % Positive Cells, CD133+ (CD133 [1]; NA, head & neck) [%] | % Positive Cells, CD133+ (CD133 [1]; SKBR3, breast) [%] | % Positive Cells, CD133+ (CD133 [1]; UMSCC-11B, head & neck, listed as anti-CD133 scFV) [%] | % Positive Cells, CD133+ (CD133 [1]; UMSCC-11B, head & neck, listed as anti-CD133scFV-FITC) [%] | levels of CD133 expression (CD133 [1]; various carcinoma lines of Table 1) | immunohistochemical staining (CD133 [2]) | flow cytometry staining of non-transfected U87 cells (CD133 [3]; CD133^low/- U87 cells) | flow cytometry staining of cells that endogenously express CD133 (CD133 [3]; Caco-2 and GBM6 cells) | flow cytometry staining of CD133-transfected U87 cells (CD133 [3]; U87 transfected with human CD133 cDNA) |
| --- | --- | --- | --- | --- | --- | --- | --- | --- | --- | --- | --- | --- | --- | --- | --- |
| B1 | 4.0 | 62.8 | 80.0 | 4.0 | 5.2 | 7.1 | 5.9 | 4.2 | 6.0 | 6 | 4-7.1% | – | – | – | – |
| B2 | – | – | – | – | – | – | – | – | – | – | – | membrane-specific staining | did not appreciably stain | able to immunostain | labeled CD133-transfected cells |
